In PMC13499124, “Insights into how JIP3 and JIP4 adaptor proteins relieve the auto-inhibited form of the kinesin-1 motor” (The Journal of Biological Chemistry, 2026):
Changes are numbered by the printed parent chain. In names and notes the source's numbering stands. Several values for one entry are separate records, joined by “and”; a condition that tells them apart may be missing. Equal values may be shown once.

B1: JIP3-N-RH1-LZI fragment (domain or fragment, mouse, UniProt Q9ESN9-1 1-187, looked up)
chain: MMEIQMDEGGGVVVYQDDYCSGSVMSERVSGLAGSIYREFERLIHCYDEEVVKELMPLVVNVLENLDSVLSENQEHEVELELLREDNEQLLTQYEREKALRKQAEEKFIEFEDALEQEKKELQIQVEHYEFQTRQLELKAKNYADQISRLEERESEMKKEYNALHQRHTEMIQTYVEHIERSKMQQV
modifications: labelled with the dye NHS-NT-488 (Protein Labelling Kit Blue-NHS, NanoTemper) in the MST assay
notes: Unlabelled in SEC-MALS; also called JIP3-N-RH1-LZ1; JIP3-Nter; source: E. coli Rosetta, purified (His-Trap, gel filtration, thrombin cleavage, gel filtration); not shown: His tag, N-terminal, cleaved; thioredoxin, N-terminal, cleaved
B2: JIP3-N-RH1-lz3 fragment (domain or fragment, mouse, UniProt Q9ESN9-1 1-100, looked up)
chain: MMEIQMDEGGGVVVYQDDYCSGSVMSERVSGLAGSIYREFERLIHCYDEEVVKELMPLVVNVLENLDSVLSENQEHEVELELLREDNEQLLTQYEREKAL
modifications: labelled with the dye NHS-NT-488 (Blue-NHS, NanoTemper) in Tables 1 and 3; labelled with NHS-fluorescein (Thermo Fisher Scientific) in Table 2
notes: JIP3, mouse, NP_038959.2, residues 1-100 (N-terminus, RH1 domain and first three heptad repeats of LZI); Unlabelled in SEC-MALS; also called JIP3-WT; wild-type JIP3-N-RH1-lz3; source: E. coli Rosetta, purified (His-Trap, gel filtration, thrombin cleavage, gel filtration); not shown: His tag, N-terminal, cleaved; thioredoxin, N-terminal, cleaved
B3: JIP3-RH1-LZI fragment (domain or fragment, UniProt Q9ESN9 22-187, looked up)
chain: GSVMSERVSGLAGSIYREFERLIHCYDEEVVKELMPLVVNVLENLDSVLSENQEHEVELELLREDNEQLLTQYEREKALRKQAEEKFIEFEDALEQEKKELQIQVEHYEFQTRQLELKAKNYADQISRLEERESEMKKEYNALHQRHTEMIQTYVEHIERSKMQQV
modifications: labelled with the dye NHS-NT-488 (Protein Labelling Kit Blue-NHS, NanoTemper) in the MST assay
notes: JIP3, RH1 domain followed by the entire LZI coiled-coil, without the N-terminus; also called RH1-LZ1
B4: JIP3-RH1-lz3 fragment (domain or fragment, mouse, UniProt Q9ESN9-1 22-100, looked up)
chain: GSVMSERVSGLAGSIYREFERLIHCYDEEVVKELMPLVVNVLENLDSVLSENQEHEVELELLREDNEQLLTQYEREKAL
modifications: labelled with the dye NHS-NT-488 (Protein Labelling Kit Blue-NHS, NanoTemper) in the MST assay
notes: JIP3, mouse, NP_038959.2, residues 22-100 (RH1 domain and first three heptad repeats of LZI); Unlabelled in SEC-MALS; source: E. coli Rosetta, purified (His-Trap, gel filtration, thrombin cleavage, gel filtration); not shown: His tag, N-terminal, cleaved; thioredoxin, N-terminal, cleaved
B5: JIP4-N-RH1-lz3 fragment (domain or fragment, UniProt O60271 1-95, looked up)
chain: MELEDGVVYQEEPGGSGAVMSERVSGLAGSIYREFERLIGRYDEEVVKELMPLVVAVLENLDSVFAQDQEHQVELELLRDDNEQLITQYEREKAL
modifications: labelled with a fluorescent dye in the MST assay (legend of Figure 4)
notes: JIP4, N-terminus (17 residues), RH1 domain and first three heptad repeats of LZI; also called wild-type JIP4-N-RH1-lz3
B6: JIP4-RH1-lz3 fragment (domain or fragment, UniProt O60271 18-95, looked up)
chain: AVMSERVSGLAGSIYREFERLIGRYDEEVVKELMPLVVAVLENLDSVFAQDQEHQVELELLRDDNEQLITQYEREKAL
modifications: labelled with a fluorescent dye in the MST assay (legend of Figure 4)
notes: JIP4, RH1 domain and first three heptad repeats of LZI, without the 17-residue N-terminus
B7: JIP3-N-RH1-lz3 E39A (domain or fragment, mouse, UniProt Q9ESN9-1 1-100, looked up)
chain: B2 chain with E39A
modifications: labelled with NHS-fluorescein (Thermo Fisher Scientific)
notes: JIP3, mouse, NP_038959.2, residues 1-100 (N-RH1-lz3); also called JIP3-E39A; source: E. coli Rosetta, purified (His-Trap, gel filtration, thrombin cleavage, gel filtration); not shown: His tag, N-terminal, cleaved; thioredoxin, N-terminal, cleaved
B8: JIP3-N-RH1-lz3 E41A (domain or fragment, mouse, UniProt Q9ESN9-1 1-100, looked up)
chain: B2 chain with E41A
modifications: labelled with NHS-fluorescein (Thermo Fisher Scientific)
notes: JIP3, mouse, NP_038959.2, residues 1-100 (N-RH1-lz3); also called JIP3-E41A; source: E. coli Rosetta, purified (His-Trap, gel filtration, thrombin cleavage, gel filtration); not shown: His tag, N-terminal, cleaved; thioredoxin, N-terminal, cleaved
B9: JIP3-N-RH1-lz3 E54A (domain or fragment, mouse, UniProt Q9ESN9-1 1-100, looked up)
chain: B2 chain with E54A
modifications: labelled with NHS-fluorescein (Thermo Fisher Scientific)
notes: JIP3, mouse, NP_038959.2, residues 1-100 (N-RH1-lz3); also called JIP3-E54A; source: E. coli Rosetta, purified (His-Trap, gel filtration, thrombin cleavage, gel filtration); not shown: His tag, N-terminal, cleaved; thioredoxin, N-terminal, cleaved
B10: JIP3-N-RH1-lz3 R38A (domain or fragment, mouse, UniProt Q9ESN9-1 1-100, looked up)
chain: B2 chain with R38A
modifications: labelled with NHS-fluorescein (Thermo Fisher Scientific)
notes: JIP3, mouse, NP_038959.2, residues 1-100 (N-RH1-lz3); also called JIP3-R38A; source: E. coli Rosetta, purified (His-Trap, gel filtration, thrombin cleavage, gel filtration); not shown: His tag, N-terminal, cleaved; thioredoxin, N-terminal, cleaved
B11: JIP3-N-RH1-lz3 R42A (domain or fragment, mouse, UniProt Q9ESN9-1 1-100, looked up)
chain: B2 chain with R42A
modifications: labelled with NHS-fluorescein (Thermo Fisher Scientific)
notes: JIP3, mouse, NP_038959.2, residues 1-100 (N-RH1-lz3); also called JIP3-R42A; source: E. coli Rosetta, purified (His-Trap, gel filtration, thrombin cleavage, gel filtration); not shown: His tag, N-terminal, cleaved; thioredoxin, N-terminal, cleaved
B12: JIP3-N-RH1-lz3 N65A (domain or fragment, mouse, UniProt Q9ESN9-1 1-100, looked up)
chain: B2 chain with N65A
modifications: labelled with NHS-fluorescein (Thermo Fisher Scientific)
notes: JIP3, mouse, NP_038959.2, residues 1-100 (N-RH1-lz3); also called JIP3-N65A; source: E. coli Rosetta, purified (His-Trap, gel filtration, thrombin cleavage, gel filtration); not shown: His tag, N-terminal, cleaved; thioredoxin, N-terminal, cleaved
B13: JIP3-N-RH1-lz3 E27A (domain or fragment, mouse, UniProt Q9ESN9-1 1-100, looked up)
chain: B2 chain with E27A
modifications: labelled with NHS-fluorescein (Thermo Fisher Scientific)
notes: JIP3, mouse, NP_038959.2, residues 1-100 (N-RH1-lz3); also called JIP3-E27A; source: E. coli Rosetta, purified (His-Trap, gel filtration, thrombin cleavage, gel filtration); not shown: His tag, N-terminal, cleaved; thioredoxin, N-terminal, cleaved
B14: JIP3-N-RH1-lz3 N61A (domain or fragment, mouse, UniProt Q9ESN9-1 1-100, looked up)
chain: B2 chain with N61A
modifications: labelled with a fluorescent dye in the MST assay (legend of Figure 4)
notes: JIP3, mouse, NP_038959.2, residues 1-100 (N-RH1-lz3), residue changed to that of JIP4; also called JIP3-N61A; Asn61 mutant; source: E. coli Rosetta, purified (His-Trap, gel filtration, thrombin cleavage, gel filtration); not shown: His tag, N-terminal, cleaved; thioredoxin, N-terminal, cleaved
B15: JIP3-N-RH1-lz3 L70F-S71A-E72Q-N73D (domain or fragment, mouse, UniProt Q9ESN9-1 1-100, looked up)
chain: B2 chain with L70F, S71A, E72Q, N73D
modifications: labelled with a fluorescent dye in the MST assay (legend of Figure 4)
notes: JIP3, mouse, NP_038959.2, residues 1-100 (N-RH1-lz3), residues changed to those of JIP4; also called JIP3-L70F-S71A-E72Q-N73D; source: E. coli Rosetta, purified (His-Trap, gel filtration, thrombin cleavage, gel filtration); not shown: His tag, N-terminal, cleaved; thioredoxin, N-terminal, cleaved
B16: JIP3-N-RH1-lz3 E77Q (domain or fragment, mouse, UniProt Q9ESN9-1 1-100, looked up)
chain: B2 chain with E77Q
modifications: labelled with a fluorescent dye in the MST assay (legend of Figure 4)
notes: JIP3, mouse, NP_038959.2, residues 1-100 (N-RH1-lz3), residue changed to that of JIP4; also called JIP3-E77Q; source: E. coli Rosetta, purified (His-Trap, gel filtration, thrombin cleavage, gel filtration); not shown: His tag, N-terminal, cleaved; thioredoxin, N-terminal, cleaved
B17: JIP3-N-RH1-lz3 H45G-C46R (domain or fragment, mouse, UniProt Q9ESN9-1 1-100, looked up)
chain: B2 chain with H45G, C46R
modifications: labelled with a fluorescent dye in the MST assay (legend of Figure 4)
notes: JIP3, mouse, NP_038959.2, residues 1-100 (N-RH1-lz3), residues changed to those of JIP4; also called JIP3-H45G-C46R; source: E. coli Rosetta, purified (His-Trap, gel filtration, thrombin cleavage, gel filtration); not shown: His tag, N-terminal, cleaved; thioredoxin, N-terminal, cleaved

The binders below were run against T1, KIF5B-CC3b-CC4-dt fragment (human, UniProt P33176 771-963) (assay: MST; labelled JIP3/4 fragment (Blue-NHS dye) constant at 20 nM, KIF5B fragment titrated 120 pM to 4 uM (up to 38.2 uM when needed); 50 mM Tris pH 8.0, 200 mM NaCl, 10 mM MgCl2, 0.05% Tween 20; room temperature; Monolith NT.115, premium capillaries, MST-on 0.5-1.5 s; 1:1 Kd fit; three replicates; the paper calls its affinities relative measurements). Details: both partners purified.
T1 construct: kinesin-1 heavy chain KIF5B, human, NP_004512.1, residues 771-963 (last part of CC3, CC4 and distal tail); pET28 plasmid, NdeI/XhoI; the methods call it CC3-CC4-dt; also called KIF5B-CC3-CC4-dt; KIF5B-Tail; source: E. coli Rosetta, purified (His-Trap, Superdex 75 gel filtration); not shown: His6, N-terminal, kept
T1 sequence (P33176 771-963): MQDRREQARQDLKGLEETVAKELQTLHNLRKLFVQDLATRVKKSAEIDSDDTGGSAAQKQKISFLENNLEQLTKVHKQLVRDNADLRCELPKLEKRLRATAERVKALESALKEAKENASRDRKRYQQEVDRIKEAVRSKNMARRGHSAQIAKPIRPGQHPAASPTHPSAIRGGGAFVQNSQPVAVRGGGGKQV
Binder B1 has a Kd of 18.8 ± 4 nM. For B2, the Kd was 14.7 nM and 18.3 nM. Work on B3 yielded a Kd of 50.5 ± 12.9 nM. B4 showed a Kd of 79.3 ± 15.9 nM.

What follows are binders tested against T2, KIF5B-CC3b-CC4 fragment, with N-terminal 6-histidine tag (human, UniProt P33176 771-914) in the same assay as above. Details: both partners purified.
T2 construct: kinesin-1 heavy chain KIF5B, human, NP_004512.1, residues 771-914 (last part of CC3 and CC4); also called CC3-CC4; source: E. coli Rosetta, purified (His-Trap, Superdex 75 gel filtration); not shown: His6, N-terminal, kept
T2 sequence (P33176 771-914): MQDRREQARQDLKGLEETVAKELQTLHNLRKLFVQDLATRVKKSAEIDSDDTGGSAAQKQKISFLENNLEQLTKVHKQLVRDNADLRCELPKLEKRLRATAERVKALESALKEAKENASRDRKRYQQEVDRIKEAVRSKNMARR
B2 was tested, and the Kd was 77.7 ± 12 nM.

Target: the molecule itself
Test: SEC-MALS; JIP3/4-Nter fragments in solution, single peak; dimer; conditions not shown (Fig. S1B, Table S2)
Details: not given
For B1, the “stoichiometry N” value was 2. B2 was tested, and the “stoichiometry N” value was 2. With B5 the “stoichiometry N” value was 2. B6 was tested, and the “stoichiometry N” value was 2. For B4, the “stoichiometry N” value was 2.

The binders below were run against T3, KIF5B-CC3b-CC4 fragment, 6-histidine tag removed (human, UniProt P33176 771-914) (assay: MST + other fluorescence titration; JIP3-N-RH1-lz3 wild type and alanine mutants labelled with NHS-fluorescein, constant at 20 nM; KIF5B-CC3b-CC4 without His tag titrated; 50 mM Tris pH 8.0, 200 mM NaCl, 10 mM MgCl2, 0.05% Tween 20; room temperature; Monolith NT.115; the change in overall fluorescence intensity was used for the Kd; 1:1 fit). Details: both partners purified.
T3 construct: kinesin-1 heavy chain KIF5B, human, NP_004512.1, residues 771-914 (last part of CC3 and CC4); source: E. coli Rosetta, purified (His-Trap, Superdex 75 gel filtration); not shown: His6, N-terminal, cleaved
T3 sequence (P33176 771-914): as above
For B7, the Kd was 395 ± 137 nM. B8 showed a Kd of 204 ± 57.8 nM. Work on B9 yielded a Kd of 226 ± 26.4 nM. B10 showed a Kd of 151 ± 27.8 nM. Binder B11 has a Kd of 90.8 ± 12.6 nM. B12 showed a Kd of 118 ± 23 nM. B2 was tested, and the Kd was 148 ± 21.4 nM. B13 was tested, and the Kd was 215 ± 57.3 nM.

Target: T1, KIF5B-CC3b-CC4-dt fragment
Test: MST; labelled JIP3/4 fragment (Blue-NHS dye) constant at 20 nM, KIF5B fragment titrated 120 pM to 4 uM (up to 38.2 uM when needed); 50 mM Tris pH 8.0, 200 mM NaCl, 10 mM MgCl2, 0.05% Tween 20; room temperature; Monolith NT.115, premium capillaries, MST-on 0.5-1.5 s; 1:1 Kd fit; three replicates; the paper calls its affinities relative measurements
Details: both partners purified
Remark: another data set of the same source
In the case of B2, the Kd is reported as 20.6 ± 2.6 nM. B5 showed a Kd of 777 ± 146 nM. With B6 the Kd was 682 ± 187 nM. With B14 the Kd was 29.9 ± 3 nM. With B15 the Kd was 47.5 ± 4.6 nM. For B16, the Kd was 46.8 ± 6.8 nM. With B17 the Kd was 198 ± 27.3 nM.
